This is an account of results in US20080207526A1.

For assay [1], the target named is recombinant water-soluble HLA-DR4 (DRA/DRB1*0401) (human).
Assay [2] deals with recombinant water-soluble HLA-DR1 (DRA/DRB1*0101) (human).
Assay [3] addresses recombinant water-soluble HLA-DR2 (DRB1*1501) (human).
Assay [4] addresses recombinant water-soluble HLA-DR4 (DRA/DRB1*0401) (human). This is another data set of the same source.
The target of assay [5] is recombinant water-soluble HLA-DR1 (DRA/DRB1*0101) (human). This is another data set of the same source.
Assay [6] addresses T1, recombinant water-soluble HLA-DR4 (DRA/DRB1*0401) (human).
T1 chain 1: not shown
T1 chain 2: not shown

Assay [7] concerns the target T2, HLA-DR4 on antigen presenting cells (L cells transfected with DR4; Priess cells DRB1*0401/DRB4*0101) (human).
T2 chain 1: not shown
T2 chain 2: not shown
As to the kind of experiment: cell-based or functional assay.

The target of assay [8] is T3, recombinant water-soluble HLA-DR1 (DRA/DRB1*0101) (human).
T3 chain 1: not shown
T3 chain 2: not shown

For assay [9], the target named is T1, recombinant water-soluble HLA-DR4 ….
The target of assay [10] is T3, recombinant water-soluble HLA-DR1 ….

Like-named read-outs stand apart in the source and are kept apart here. A value given as a limit tells only on which side of the number the result lay.

Copolymer 1, poly(Y,E,A,K): the values for the affinity determined by competition with biotinylated competitor in assay [1] and in [5] were 2.5 µM and 8 µM, respectively. The percent of added YEAK in the bound fraction in assay [2] is over 95%; in [3], 80%; in assay [4], over 95%.

B1: peptide SEQ ID NO: 35 (peptide)
peptide: AYKAEAAAAAAAAAA
modifications: not checked
For B1, the affinity determined by competition with biotinylated competitor in assay [6] came out at 1.3 µM.

B2: peptide SEQ ID NO: 5 (peptide)
peptide: AAAYAAAAAAKAAAA
modifications: not checked
On to B2, for which, in assay [6], the affinity determined by competition with biotinylated competitor was determined as 7 µM.

B3: peptide SEQ ID NO: 17 (peptide)
peptide: EKKYAAAAAAKAAAA
modifications: not checked
For B3, in assay [6], the affinity determined by competition with biotinylated competitor was 1.8 µM. This molecule registered an inhibition of the DR4-restricted 3838 T cell clone (IL-2 secretion) in assay [7] of over 80%.

B4: peptide SEQ ID NO: 26 (peptide)
peptide: AAEYKAAAAAAAAAA
modifications: not checked
Regarding B4, the affinity determined by competition with biotinylated competitor in [6] stood at 1.8 µM.

B5: peptide SEQ ID NO: 10 (peptide)
peptide: KEAYAAAAAAKAAAA
modifications: not checked
Take B5: the affinity determined by competition with biotinylated competitor in assay [6] was 4.5 µM.

B6: peptide SEQ ID NO: 18 (peptide)
peptide: EAKYAAAAAAKAAAA
modifications: not checked
Consider B6, for which the affinity determined by competition with biotinylated competitor in assay [8] is 33 µM; in assay [6], 4.4 µM; in assay [9] it was 3 µM.

B7: peptide SEQ ID NO: 28 (peptide)
peptide: AAKYEAAAAAAAAAA
modifications: not checked
B7 displayed an inhibition of the DR4-restricted 3838 T cell clone (IL-2 secretion) in [7] of over 80%.

B8: peptide SEQ ID NO: 11 (peptide)
peptide: AEEYAAAAAAKAAAA
modifications: not checked
As for B8, in [7], the inhibition of the DR4-restricted 3838 T cell clone (IL-2 secretion) was over 80%.

B9: peptide SEQ ID NO: 33 (peptide)
peptide: AEKAYAAAAAAAAAA
modifications: not checked
Turning to B9, the affinity determined by competition with biotinylated competitor in assay [6] (remark: other sources report otherwise) is under 1 µM. Further, the inhibition of the DR4-restricted 3838 T cell clone (IL-2 secretion) in assay [7] is over 80%.

B10: peptide SEQ ID NO: 14 (peptide)
peptide: AAKYEAAAAAKAAAA
modifications: not checked
As for B10, the affinity determined by competition with biotinylated competitor in assay [6] was found to be 4 µM.

B11: peptide SEQ ID NO: 6 (peptide)
peptide: AEKYAAAAAAKAAAA
modifications: not checked
As for B11, in [7], the inhibition of the DR4-restricted 3838 T cell clone (IL-2 secretion) is over 80%.

B12: peptide SEQ ID NO: 16 (peptide)
peptide: EAAYAAAAAAKAAAA
modifications: not checked
Take B12: the affinity determined by competition with biotinylated competitor in assay [6] was found to be 5 µM. This molecule also gave an inhibition of the DR4-restricted 3838 T cell clone (IL-2 secretion) in [7] of over 80%.

B13: peptide SEQ ID NO: 7 (peptide)
peptide: AKEYAAAAAAKAAAA
modifications: not checked
Turning to B13, the affinity determined by competition with biotinylated competitor in assay [8] is 19 µM; in assay [6], 4.5 µM.

B14: peptide SEQ ID NO: 21 (peptide)
peptide: AKKYEAAAAAAAAAA
modifications: not checked
In the case of B14, the affinity determined by competition with biotinylated competitor in assay [6] came to 2.2 µM.

B15: peptide SEQ ID NO: 32 (peptide)
peptide: AEYAKAAAAAAAAAA
modifications: not checked
B15: the affinity determined by competition with biotinylated competitor in assay [6] was found to be 3 µM.

B16: peptide SEQ ID NO: 13 (peptide)
peptide: EKAYAAAAAAKAAAA
modifications: not checked
Turning to B16, the affinity determined by competition with biotinylated competitor in assay [6] is 3.3 µM.

B17: peptide SEQ ID NO: 36 (peptide)
peptide: AKYAEAAAAAAAAAA
modifications: not checked
In the case of B17, in assay [6], the affinity determined by competition with biotinylated competitor was found to be 3 µM.

B18: peptide SEQ ID NO: 15 (peptide)
peptide: AAKYAEAAAAKAAAA
modifications: not checked
Take B18: the affinity determined by competition with biotinylated competitor is 42 µM in [8], 1.8 µM in assay [6], 16 µM in assay [10] and under 1 µM in [9].

B19: peptide SEQ ID NO: 12 (peptide)
peptide: AAEYAAAAAAKAAAA
modifications: not checked
With B19, the affinity determined by competition with biotinylated competitor in assay [8] was 47 µM; in assay [6], 3.2 µM.
